Measurements taken from publication PMC2941729 (Molecular Microbiology, 2010).

Biological target: the molecule itself
Experiment: SEC

B1: G266DΔGAF–His (domain or fragment, Escherichia coli K12, UniProt P37013 171-504, looked up)
chain: MLPGDATPFEAVKQTQMIGLSPGMTQLKKEIEIVAASDLNVLISGETGTGKELVAKAIHEASPRAVNPLVYLNCAALPESVAESELFGHVKGAFTDAISNRSGKFEMADNGTLFLDEIGELSLALQAKLLRVLQYGDIQRVGDDRCLRVDVRVLAATNRDLREEVLAGRFRADLFHRLSVFPLSVPPLRERGDDVILLAGYFCEQCRLRQGLSRVVLSAGARNLLQHYSFPGNVRELEHAIHRAVVLARATRSGDEVILEAQHFAFPEVTLPTPEVAAVPVVKQNLREATEAFQRETIRQALAQNHHNWAACARMLETDVANLHRLAKRLGLKD
B1: binds.
